Experimental data taken from paper PMC2756145.
Numbering of substitutions follows the chain as printed.

What was measured:
Assay in all cases: filter binding
[1] = biological target: T1, Pot1-DBD_S123A (Schizosaccharomyces pombe, UniProt O13988 1-389, S123A)
T1 sequence: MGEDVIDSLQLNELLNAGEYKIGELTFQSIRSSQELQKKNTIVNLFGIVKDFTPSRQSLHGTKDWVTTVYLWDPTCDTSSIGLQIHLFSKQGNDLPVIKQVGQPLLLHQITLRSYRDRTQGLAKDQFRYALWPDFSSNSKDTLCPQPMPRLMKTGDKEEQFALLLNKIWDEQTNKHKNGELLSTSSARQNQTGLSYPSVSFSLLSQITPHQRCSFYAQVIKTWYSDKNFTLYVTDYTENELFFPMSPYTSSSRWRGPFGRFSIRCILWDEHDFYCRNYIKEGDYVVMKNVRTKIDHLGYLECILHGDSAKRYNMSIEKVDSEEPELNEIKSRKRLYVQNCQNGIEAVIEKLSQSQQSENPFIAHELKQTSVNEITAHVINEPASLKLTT

[2] = biological target: T2, Pot1-DBD_Q91A (Schizosaccharomyces pombe, UniProt O13988 1-389, Q91A)
T2 sequence: T1 sequence with Q91A, A123S

[3] = biological target: T3, Pot1-DBD_Y115A (Schizosaccharomyces pombe, UniProt O13988 1-389, Y115A)
T3 sequence: T1 sequence with Y115A, A123S

[4] = biological target: T4, Pot1-DBD_T62A (Schizosaccharomyces pombe, UniProt O13988 1-389, T62A)
T4 sequence: T1 sequence with T62A, A123S

[5] = biological target: T5, Pot1-DBD_V97A (Schizosaccharomyces pombe, UniProt O13988 1-389, V97A)
T5 sequence: T1 sequence with V97A, A123S

GGTTACGGTTAC (ssDNA) [12mer]
Kd [1]: 30 ± 2 nM
Kd [2]: 7 ± 0.6 nM
Kd [3]: 80 ± 4 nM
Kd [4]: 90 ± 3 nM
Kd [5]: 10 ± 1 nM
